# Experimental data published in the RNAGym collection of RNA variant scans (doi:10.1073/pnas.2313332121).
# Variants at the floor of the assay were thinned out.
# B1: TPR 5TU (parent)
# chain: GGAUCUUCUCGAUCUAACAAAAAAGACAAAUCUGCCACAAAGCUUGAGAGCAUCUUCGGAUGCAGAGGCGGCAGCCUUCGGUGGCGCGAUAGCGCCAACGUUCUCAACUAUGACACGCAAAACGCGUGCUCCGUUGAAUGGAGUUUAUCAUG
# Variants of: B1
# Experiment: polymerase ribozyme fitness, log enrichment relative to wild type (log ratio); higher = more active; in vitro selection for triplet polymerase activity
# Outline: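 Fitness is a logarithmic measure of how a genotype enriched relative to the wild type, with replicate averages weighted by inverse variance. The logarithm uses base 2, and enrichment came from Illumina sequencing of input and output libraries. Those libraries were PCR-built, transcribed mutants of each subunit of a heterodimeric triplet polymerase ribozyme, passed through one triplicate in vitro selection round that included frozen incubation at −7 °C, gel excision of extended constructs and streptavidin-bead capture. Genotypes were kept only if they had ≥10 input reads and ≥1 read per output.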
row,Variant,polymerase ribozyme fitness (log ratio)
1,G48A G70A U78G G84U G143U,≤ -4.2
2,A47C U56C C93U A106C,-4.09
3,G48U U135C G143C,-3.78
4,A47G U55A G71U C85G C95U,≤ -4.2
5,A47C C54G,-1.14
6,G46C U55A A89U C93G A106C U127C G140C,≤ -4.2
7,G50A A73U C93G G100U A107G U109C A142C A150U,≤ -4.2
8,G48C A49C,-3.92
9,A49C C87A C95A C123A,≤ -4.2
10,A47U A64G A138C U144C,≤ -4.2
11,G50A A52C C57G C93U,-3.12
12,A47C A89G A97U C131G,≤ -4.2
13,A47G U145G,-0.0566
14,A47G G65C A106G A120G,-4.14
15,A49G G50C C69G C103G G136U,≤ -4.2
16,G48U C57U G58C G62C G67A U82A G86A,≤ -4.2
17,A47C U77A C79A A89U,≤ -4.2
18,A49U G94A A119C,-1.28
19,G46C U55G U144A,-1.97
20,A49U C75A A91G,-4.15
21,A49C G80U,-4.02
22,A49C G50U A64C A73U C87A A115G C118G,≤ -4.2
23,A47C G117A,0.357
24,A47C A91C C105G A120G G143U,≤ -4.2

row,Variant,polymerase ribozyme fitness (log ratio)
1,A49C U61A G86A A89U A138U,≤ -4.2
2,A47U U55C G58C,-0.823
3,G46U A138C,-3.8
4,A49U A91G U130A A138U,≤ -4.2
5,A47U G71C G83A C118U,≤ -4.2
6,A47U A97G C132U,-2.35
7,G48C A52G,-1.29
8,A47U A52G U53G U56A U145G,-3.64
9,A49C C57U A60G C76U C118A,≤ -4.2
10,A49C G50U U53G G81C C87U A89C A106U A150C,≤ -4.2
11,G48C G86A G141C U148G G152A,-4.03
12,G50A A73G A150G,≤ -4.2
13,G48C U134A,-1.01
14,A49C A52G C93U A119U,≤ -4.2
15,A49G A91G G92U A138U U144C,≤ -4.2
16,G48A A97G,-0.198
17,A47U U56A C85A U104A,-2.77
18,G46U U144C,-0.573
19,A49G G83C,-1.21
20,A47C C85A C93U,≤ -4.2
21,G46U G83C G92U,-2.34
22,A49G A52G U55C G84A A91C C99G U101G,≤ -4.2
23,A47C G81C C87G C96U,≤ -4.2
24,A49G A91U G124U G141C U148G,≤ -4.2

row,Variant,polymerase ribozyme fitness (log ratio)
1,A47U C93U C96U G152A,-3.95
2,G48U U78A A91U U102G U144C,≤ -4.2
3,A47C C87A C99U G136U G141C,≤ -4.2
4,A47C U56A C85U,-0.721
5,G48U C85A U144C,-2.1
6,A49C C76A C93U A113G G117A,≤ -4.2
7,A47C A115C U144G,-0.866
8,A49G C93A,-3.6
9,A49C G83C U90C A122G,≤ -4.2
10,A47G G50U C85G,-3.89
11,A47U C93A,-2.17
12,A47U U55A C95A A122G,-0.42
13,G48U C85U G117U A122U,0.609
14,A49C C99U,≤ -4.2
15,A49G G50C,-2.28
16,A47U G48U U55A U82G U134C,-3.1
17,A47G C85U,-1.36
18,G48C C85A,-2.58
19,A49U U55A,-1.02
20,G48C G58C C99G,≤ -4.2
21,A47C C96U C103A C114G C123U,≤ -4.2
22,G48A G50U U55A,-2.15
23,A49G C87G,-4.02
24,G48C C118G A120G,-3.82

row,Variant,polymerase ribozyme fitness (log ratio)
1,A49C C87U U151G,≤ -4.2
2,G48A G50A G58C C87G,≤ -4.2
3,G48U A49U A98G C116G G133U,≤ -4.2
4,G46C U55A,-0.931
5,G48A U61A,-2.86
6,G48A U53C G92C C95U A98C,-1.65
7,A49U G84A G136U,-3.29
8,G48A G117U,-0.676
9,A47C A60C C72G U77G C87G G88U A110U A119G A147C,≤ -4.2
10,G48A A52C C105U C108U A137C,≤ -4.2
11,A47C A52G U53A G86A G94C,≤ -4.2
12,A47C U148G,-3.89
13,A47C U148A,-3.16
14,G50A A106C,-2.72
15,G48C G59U G94A A119U,-1.58
16,A47G G152U,-2.47
17,A49C C103G A115G,≤ -4.2
18,A49G A119C,-0.604
19,G48A C85U C96A C116G,-2.37
20,A49C C75A G86U G143C,-4.19
21,A47G U102A,-0.825
22,A47U A60U C95U G136A,-1.58
23,A49U G50U C125U,-1.77
24,A49C A73G U90C C149U,≤ -4.2

row,Variant,polymerase ribozyme fitness (log ratio)
1,A47G G50C U53A A97U G124C,≤ -4.2
2,A49C C96U,-3.23
3,A47U U61A C118U,-2.01
4,A49G A120U,-0.63
5,G48A A113C U134C A137C G140A U148G,≤ -4.2
6,A47G C85U A138G,-4.18
7,A47U G58U G84A C93G U148A,≤ -4.2
8,A49U A52C A89G C95U,-2.69
9,A49U A52G U61G C93U,-3.49
10,A47G C51U C75U C96A C103U A138G A147C,≤ -4.2
11,A49U G59U,-0.317
12,A49C G81U C93G,≤ -4.2
13,G48C C57A C99U U130C,-2.37
14,A49C A60G,-3.61
15,A47U G68A U82A A97G,≤ -4.2
16,A49U U56G C57U C96U U102G A147G,-3.99
17,A49U A52G,-1.71
18,A49G C75A G136U A138C,≤ -4.2
19,A47C C72U G92A,-3.53
20,A49C C54G C79U G88A C95G,≤ -4.2
21,A49C C54U C69A G94A U151C,≤ -4.2
22,A49C A66U C75G C87G C93A A98G A115U U127G G152C,≤ -4.2
23,A47C U56A,-0.282
24,G48A C51A U56A G62C,-3.16

row,Variant,polymerase ribozyme fitness (log ratio)
1,A49G U61A G71A U90C G94A A119G,≤ -4.2
2,A47C U82G A110G,-3.62
3,G48C C87A U130G,≤ -4.2
4,A49U G50A A60C,-2.62
5,A49C C96A U102G G141U,0.794
6,A47C G48U G50A U55A G94A,≤ -4.2
7,A47G C87G C103U A110G,≤ -4.2
8,A49C G50C U78C G140C,≤ -4.2
9,G48A C85U,-2.1
10,G48A C85A,-2.56
11,G48C G84A G143A,-2.38
12,G46U C63G G94U U101G A137G A147C,≤ -4.2
13,A47G G74A,-3.67
14,G48U C132A U139G,-3.31
15,A49C C99U U102G U109A,-2.46
16,G48A C79U,-3.91
17,G46U C87U,-0.944
18,G48C G50A C54U C85A C129G,≤ -4.2
19,A49U U61G C93A C108G C114A U134A C149G,≤ -4.2
20,A49C G58C A106C U109A C114A,≤ -4.2
21,A47C G50A G83A,-2.44
22,A47C C85G C96A A98G,≤ -4.2
23,A47C G50A G92U,-1.37
24,A47C U61A C85G C108A,≤ -4.2

row,Variant,polymerase ribozyme fitness (log ratio)
1,A49G C87A G126A,≤ -4.2
2,A49U U55A C96A,-1.06
3,A49U A73G,-2.09
4,G48U C118A,-0.303
5,G46U U55G C76A A89G A106U,≤ -4.2
6,G48A C85U C114U A122C,-2.44
7,A49C U82A C85U G88A G92U G133A G141U,≤ -4.2
8,A49C A91C,≤ -4.2
9,A47C G88U,-3.96
10,A49C G83C C95G U101A,≤ -4.2
11,A47U G94A,-0.308
12,A49C C54A,≤ -4.2
13,A49C A52C G68U G84A G140A,≤ -4.2
14,A47C G83A,-2.37
15,A47G U55A A89C C95U U146A,-1.95
16,A47C G50C A52C C85G C105A G141U,≤ -4.2
17,A47G G88A C96U A120G G143A,≤ -4.2
18,A49U C75U U102G,-2.65
19,G46C G80C A97C U144G,≤ -4.2
20,G48U U148C,-3.36
21,A47C U55G U56C C85U G133C G140C,≤ -4.2
22,A47G G59A C103A C131U U134C,-2.12
23,G48C U61A C93U U151A,≤ -4.2
